Data: US20170319722A1

Legend:
[1] = biological target: His-tagged CD8α human recombinant protein (TP760215, Origene) (human) (UniProt P01732); assay: sandwich ELISA; biotinylated ligand on NeutrAvidin plate, His-tagged CD8α titrated, anti-His-AP detection
[2] = biological target: CD8 on human peripheral blood mononuclear cells (PBMCs) (human) (UniProt P01732); assay: flow cytometry, human PBMCs, co-stained with CD3-APC mAb
Sequence of CD8 on human peripheral blood mononuclear cells (PBMCs) (human) (P01732 22-235): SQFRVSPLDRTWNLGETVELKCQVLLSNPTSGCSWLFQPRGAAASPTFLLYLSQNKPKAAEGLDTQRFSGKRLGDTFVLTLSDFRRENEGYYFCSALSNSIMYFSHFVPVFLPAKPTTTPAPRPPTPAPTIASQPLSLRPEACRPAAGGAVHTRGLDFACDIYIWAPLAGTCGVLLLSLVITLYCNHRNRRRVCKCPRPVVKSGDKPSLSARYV

Sequence of His-tagged CD8α human recombinant protein (TP760215, Origene) (human) (P01732 22-182 limits assumed): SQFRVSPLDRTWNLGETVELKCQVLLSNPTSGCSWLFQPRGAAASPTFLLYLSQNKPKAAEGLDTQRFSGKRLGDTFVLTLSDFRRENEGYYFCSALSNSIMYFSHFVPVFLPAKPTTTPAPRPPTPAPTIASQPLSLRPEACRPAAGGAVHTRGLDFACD

Row | EC50 [1] [nM] | % of cells detected (Q2) [2] [%] | % of cells detected (Q4) [2] [%] | Substance
1 | 20 |  |  | biotin-PEG3-Cy(slrfG) (peptide)
2 | 10 |  |  | biotin-PEG3-Cy(yGGvr) (peptide)
3 |  | 11.2 | 2.1 | human CD8-FITC mAb (clone: RPA-T8) (#561947, BD Biosciences) (antibody)
